Series [1] deals with Fusarium culmorum. The series can be described thus: Minimum inhibitory concentration (MIC) test on fungal pathogens. It is filed as cell-based. The procedure:
The start concentration of each chitinase used in minimum inhibitory concentration (MIC) tests was 100 μg/ml.
The chitinases were further tested for their protective activity in germination tests. Briefly, the following steps were conducted: • 1. Disinfection of wheat seeds in 10% bleach for 10 minutes in a biosafety cabinet • 2. Germination on filter paper • 3. Foliar application 3 dps (days post seeding) and 1 dbi (day before infection) • 4. 4 dps: add pathogen Fusarium culmorum • 5. Monitoring germination and plant health/phytotox

Another series has as its system D. melanogaster eggs. The series is described as follows: Larvae survival after treatment of D. melanogaster eggs. The series is classed as in vivo. The following applies: chitinase concentrations from 10% to 0.1%. On the procedure:
The effects of chitinases on insects was tested on D. melanogaster eggs. Briefly, eggs were treated with chitinase 1 or a control, and larvae survival was assessed 3 days after treatment (DAT). Results for chitinase concentrations of concentration from 10% to 0.1% were as follows: […]

The nature of series [2]: Chitinase mixture design, conversion rate of chitin powder (reducing end assay). As to conditions: 2 μM Factor A. It is filed as biochemical. On the procedure: All five chitinases implemented in the DoE originated from a novel marine Photobacterium strain expressing these enzymes to carry out a conversion of crystalline chitin to monomeric and dimeric polysaccharides. All chitinases were produced recombinantly using E. coli BL21 (DE3) and characterized regarding optimum reaction conditions and product properties in Example 2. As so far only singular enzyme reactions were carried out, the DoE approach was used to 1) determine ideal enzyme combinations to maximize product rates 2) identify possible enzyme combinations to alter product distribution in terms of DP. […] The amount of released reducing sugars from the enzymatic degradation was quantified by the reducing end assay and used as a primary response.
The optimization function in Design Expert was used to model enzyme mixtures to maximize the overall conversion rate of chitin to oligomeric chitin mixtures. Three mixture solutions for maximized chitin (S1-83 Max) oligomer rates were tested and quantitative data was compared to the values predicted by the model. […]
Enzymatic activity of recombinant chitinases was determined by carrying out a reducing end assay [J., H., Svein, E., and H., V. G., Carbohydr Polym, 2004. […] Samples were cooled down to room temperature and absorption was determined at 620 nm. […]

A short description of series [3]: Substrate conversion yield from residue substrate after the reaction. The following applies: residue substrate after the reaction relative to the starting material. The series is classed as biochemical. The procedure: The overall substrate conversion yield was determined for all maximized solutions after determining the residue substrate after the reaction, relative to the starting material.

In series [4] the test system is Fusarium culmorum. It is filed as in vivo. The following applies: wheat, foliar application 3 dps, F. culmorum added 4 dps.
Series [5] relates to corn (maize), rice, barley. The series can be described thus: Protection of plants against abiotic stress (drought, flooding, salt, frost). It is filed as in vivo, pear, cherry. As to conditions: foliar and/or seed application. An excerpt:
FIGS. 18A-18E. Use of chitinase 1 as plant protection agent against abiotic stresses. Plant length (PL) FIG. 18A: after foliar application on corn in presence of drought or flooding stress; FIG. 18B: after foliar, seed or foliar+seed application on corn in presence of drought stress; FIG. 18C: after foliar application on rice in presence of salt stress; FIG. 18D: after foliar application on corn in presence of salt stress; FIG. 18E: after seed application on barley in presence of drought stress.
FIGS. 19A-19B. Use of chitinase 1 as plant protection agent against abiotic stresses. Yield FIG. 19A: of pears after foliar application in presence of frost stress; FIG. 19B: of cherries after foliar application in presence of frost stress.
Chitinase 1 was tested for protective effects against abiotic stress. Abiotic stresses tested were drought, flooding, salt, or frost stress. Plants tested were: corn (maize), rice, barley, pear and […]. Test conditions were as follows:
• plants are drilled in trays • germination at 25° C./15° C. (day/night) light 16 h, dark 8 h • application 10 days later • 2 days later replanted in pots of 8×8 cm • 3 possible regimes • no water • every day water with flooding system • continuous water
• plants are drilled in trays • germination at 25° C./15° C. […]

B1: Chitinase 1: chitinolytic enzyme from P. orarium, SEQ ID NO: 1, recombinant with PelB signal peptide and 6×His tag; run 19 = 2 μM alone (protein, listed as Photobacterium orarium)
chain: MAAPGTPQIAWMETDYAIVEVDQAASAYKSLITVKPAAEVPVAWQRYSGETADLWKVKLNGNVVFEQSIAPASSGAGSTTLSVAQGGQYAMTVELCSGTGAAQACTSSAATNIVVADTDGSHLDPLPMNVDANNGNYTTPANTVVGAYFVEWGVYGRKFSVDNIPAQNLTHILYGFIPICGPNESLGEIENGNSLAALNRACQGTPDYEVVIHDPWAAVQMPQPQSGHTHSTPYKGTYGQMMALKQRYPDLKIVPSVGGWTLSDPFYSFTDKAKRDIFVASVKKFLKTWKFFDGVDIDWEFPGGKGANANLGDPVNDGPAYVALMRELRVMLDELEAETGRQYELTSAIGVGYDKIDVVNYADAVQYMDYIFAMTYDFFGGWNNVPGHQTALFCGSHMSADVCNGTGVDENGVPRQGPAYTAAHGIDRLLAQGVPANKLVLGTAMYARGWTGVTEASMTDPTNPMTGTGNGMVPGSWEPGVIDYKDVVTDYINNAAVTKGYDAQAEAPWAYNPSNGNLITYDDRRSVLAKGQYVRNLGLAGLFAWEIDADNGDILNAMQDSLAGGGGNYAPVAKAGADQVVNGAASVTLDGSASSDRDGQIVSYQWTQTSGPALTLTGSDTATATVAVPEVTADTQYAFTLTVTDNAGDTATDSVTVTAKAPGSNTAPVVAVSGPATASAGDTVVLDASQSSDADGDTLTFTWTVPAGVNATVNGATVSFVADSYTVDTPLNFTVAVSDGTDSVTESVTVTVLKDGGSTGCTNAWATGGVYNSGDIVTHSGKSWKAKWWTTGEEPGTTGEWGVWEDLGAANCQIE
modifications: PelB signal peptide; 6xHis tag; Chitinase 1
notes: run 19 = 2 μM alone
For B1, in the series with Fusarium culmorum [1], the “inhibition of Fusarium culmorum in the MIC assay” value is on record as “showed inhibition”. Moreover, in the series on D. melanogaster eggs (3 days after treatment, control 25), the “% mortality” value is recorded as 36%. Further, the “% survival” value in the series with D. melanogaster eggs (larvae survival 3 days after treatment, control 75) stood at 64%. Also, the “conversion rate (highest of the design runs)” value in series [2] was found to be 502 nmol/mL/h. The substrate conversion yield in series [3] is on record as 18.3±0.5%. For the same molecule, the “fungal growth in germination test” value with Fusarium culmorum [4] is listed as “strong inhibition of fungal growth”. For the same molecule, in the series on Fusarium culmorum [4] (compared to the control), the “plant health in germination test” value is “improved plant health”. In addition, the “protection from abiotic stress (plant length, fruit yield)” value in series [5] is “protects the plants from different abiotic stresses”.

(Values after patent publication US20240287489A1, “CHITINOLYTIC ENZYME-BASED PLANT PROTECTION AGENTS” (GLOBACHEM NV, priority 2021, published 2024).)
